According to US20090149339A1 (published 2009):
Ends that are not written are not given here. * marks the point of attachment. Biotin = O=C1N[C@H]2[C@H](CS[C@H]2CCCCC(=O)*)N1

Experiments:
[1] = biological target: T1, GST-AF6 PDZ domain fusion protein (af-6 protein AA985-1077; PDZ domain 1 of 1) (UniProt P08515 1-218 = GST); assay: A assay
[2] = biological target: T2, GST-prIL16 PDZ domain fusion protein (putative interleukin 16 precursor AA170-383; PDZ domains 1-2 of 2) (UniProt P08515 1-218 = GST); assay: A assay
[3] = biological target: T3, GST-41.8 kD PDZ domain fusion protein (hypothetical 41.8 kD protein AA4-85; PDZ domain 1 of 1) (UniProt P08515 1-218 = GST); assay: A assay
T3 construct: also called hypoth

[4] = biological target: T4, GST-MPP1 PDZ domain fusion protein (55 Kd erythrocyte membrane protein AA101-186; PDZ domain 1 of 1) (UniProt P08515 1-218 = GST); assay: A assay
[5] = biological target: T5, GST-RGS12 PDZ domain fusion protein (human regulator of G-protein signalling 12 AA35-103; PDZ domain 1 of 1) (human, UniProt P08515 1-218 = GST); assay: A assay
T5 construct: also called RSG12

[6] = biological target: T6, GST-DVL1 PDZ domain fusion protein (human dishevelled segment polarity protein homolog AA248-340); PDZ domain … (human, UniProt P08515 1-218 = GST); assay: A assay
[7] = biological target: T7, GST-TAX40 PDZ domain fusion protein (human tax interaction protein 40 AA35-137; PDZ domain 1 of 1) (human, UniProt P08515 1-218 = GST); assay: A assay
T7 construct: also called TX 40

[8] = biological target: T8, GST-TIAM1 PDZ domain fusion protein (T-lymphoma invasion and metastasis inducing protein 1 AA1001-1088); PDZ 1 … (UniProt P08515 1-218 = GST); assay: A assay
[9] = biological target: T9, GST-SYN1a PDZ domain fusion protein (alpha1-syntrophin AA96-189; PDZ domain 1 of 1) (UniProt P08515 1-218 = GST); assay: A assay
T9 construct: also called SYN 1 alpha; SYNTR 1 alpha

[10] = biological target: T10, GST-TAX43 PDZ domain fusion protein (human tax interaction protein 43 AA15-85; PDZ domain 1 of 1) (human, UniProt P08515 1-218 = GST); assay: A assay
T10 construct: also called TX 43

[11] = biological target: T11, GST-CASK PDZ domain fusion protein (CASK AA495-584; PDZ domain 1 of 1) (mouse, UniProt P08515 1-218 = GST); assay: G assay
T11 construct: also called mCASK

[12] = biological target: T12, GST-NeDLG PDZ domain fusion protein (presynaptic protein sao102, neuroendocrine-dlg; PDZ domains 1-2 of 3) (UniProt P08515 1-218 = GST); assay: G assay
T12 construct: also called NeDLG1

[13] = biological target: GST-LIM PDZ domain fusion protein (Human LIM protein AA29-112; PDZ domain 1 of 1) (human, UniProt P08515 1-218 = GST); assay: A/G assays
[14] = biological target: GST-LIMK2 PDZ domain fusion protein (human LIM domain kinase 2 AA185-275; PDZ domain 1 of 1) (human, UniProt P08515 1-218 = GST); assay: A/G assays
[15] = biological target: T13, GST-MPP2 PDZ domain fusion protein (maguk p55 subfamily member 2 (DLG2) AA185-273; PDZ domain 1 of 1) (UniProt P08515 1-218 = GST); assay: A/G assays
T13 construct: also called MMP2

[16] = biological target: GST-NOS1 PDZ domain fusion protein (human neuronal nitric oxide synthase; PDZ domain 1 of 1) (human, UniProt P08515 1-218 = GST); assay: A/G assays
[17] = biological target: GST-PTN-4 PDZ domain fusion protein (protein-tyrosine phosphatase meg1 AA774-862; PDZ domain 1 of 1) (UniProt P08515 1-218 = GST); assay: A/G assays
[18] = biological target: T14, GST-KIAA0559 PDZ domain fusion protein (KIAA0559 AA766-870; PDZ1 of 1) (UniProt P08515 1-218 = GST); assay: A/G assays
T14 construct: also called K559

[19] = biological target: T15, GST-KIAA0316 PDZ domain fusion protein (KIAA0316 AA197-284; PDZ domain 1 of 1) (UniProt P08515 1-218 = GST); assay: A/G assays
T15 construct: also called K316

[20] = biological target: T16, GST-KIAA0303 PDZ domain fusion protein (KIAA0303 AA652-742; PDZ domain 1 of 1) (UniProt P08515 1-218 = GST); assay: A/G assays
T16 construct: also called K303

[21] = biological target: T17, GST-CBP PDZ domain fusion protein (Cytohesin binding protein HE AA85-175; PDZ domain 1 of 1) (UniProt P08515 1-218 = GST); assay: A/G assays
T17 construct: also called Prot

[22] = biological target: GST-MINT3 PDZ domain fusion protein (human MINT3 AA11-52; PDZ domain 1 of 1) (human, UniProt P08515 1-218 = GST); assay: A/G assays
[23] = biological target: T18, GST-TAX2 PDZ domain fusion protein (human tax interaction protein 2 AA54-140; PDZ domain 1 of 1) (human, UniProt P08515 1-218 = GST); assay: A/G assays
T18 construct: also called TX 2

[24] = biological target: T19, GST-TAX33 PDZ domain fusion protein (tax interaction protein 33 AA73-162; PDZ domain 1 of 1) (UniProt P08515 1-218 = GST); assay: A/G assays
T19 construct: also called TX33

[25] = biological target: T20, GST-PSD95 PDZ domain fusion protein (human post-synaptic density protein 95 AA387-724; PDZ domains 1-3 of 3) (human, UniProt P08515 1-218 = GST); assay: A and G assays
[26] = biological target: T11, GST-CASK PDZ domain fusion protein …; assay: A/G assays
[27] = biological target: T1, GST-AF6 PDZ domain fusion protein (af-6 …); assay: A/G assays
[28] = biological target: T2, GST-prIL16 PDZ domain fusion protein …; assay: A/G assays
[29] = biological target: T4, GST-MPP1 PDZ domain fusion protein (55 …); assay: A/G assays
[30] = biological target: T5, GST-RGS12 PDZ domain fusion protein …; assay: A/G assays
[31] = biological target: T6, GST-DVL1 PDZ domain fusion protein …; assay: A/G assays
[32] = biological target: T7, GST-TAX40 PDZ domain fusion protein …; assay: A/G assays
[33] = biological target: T8, GST-TIAM1 PDZ domain fusion protein …; assay: A/G assays
[34] = biological target: T9, GST-SYN1a PDZ domain fusion protein …; assay: A/G assays
[35] = biological target: T10, GST-TAX43 PDZ domain fusion protein …; assay: A/G assays
[36] = biological target: T20, GST-PSD95 PDZ domain fusion protein …; assay: G assay, peptide titrated on immobilized GST-PDZ, saturation fit (apparent affinity)
Excerpt: (§1) FIGS. 2A and 2B show the Apparent Affinity Determination for PDZ-Ligand Interactions. […] The binding to GST alone (<0.2 OD units) was subtracted from the binding to the fusion proteins to obtain the signal at each peptide concentration.

[37] = biological target: T12, GST-NeDLG PDZ domain fusion protein …; assay: as above
Excerpt: as §1

T14 sequence (P08515 1-218, tags or fused parts left off): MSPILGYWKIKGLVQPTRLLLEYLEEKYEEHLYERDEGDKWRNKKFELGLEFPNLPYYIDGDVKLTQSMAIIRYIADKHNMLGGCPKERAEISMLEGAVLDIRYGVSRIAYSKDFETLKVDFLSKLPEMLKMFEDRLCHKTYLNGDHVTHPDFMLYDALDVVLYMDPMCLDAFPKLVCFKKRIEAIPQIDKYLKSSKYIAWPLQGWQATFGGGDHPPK
T5 sequence (P08515 1-218, tags or fused parts left off): as above
T2 sequence (P08515 1-218, tags or fused parts left off): as above
T8 sequence (P08515 1-218, tags or fused parts left off): as above
T6 sequence (P08515 1-218, tags or fused parts left off): as above
T1 sequence (P08515 1-218, tags or fused parts left off): as above
T13 sequence (P08515 1-218, tags or fused parts left off): as above
T20 sequence (P08515 1-218, tags or fused parts left off): as above
T4 sequence (P08515 1-218, tags or fused parts left off): as above
T10 sequence (P08515 1-218, tags or fused parts left off): as above
T16 sequence (P08515 1-218, tags or fused parts left off): as above
Sequence of GST-PTN-4 PDZ domain fusion protein (protein-tyrosine phosphatase meg1 AA774-862; PDZ domain 1 of 1) (P08515 1-218, tags or fused parts left off): as above
T12 sequence (P08515 1-218, tags or fused parts left off): as above
T9 sequence (P08515 1-218, tags or fused parts left off): as above
T17 sequence (P08515 1-218, tags or fused parts left off): as above
Sequence of GST-NOS1 PDZ domain fusion protein (human neuronal nitric oxide synthase; PDZ domain 1 of 1) (P08515 1-218, tags or fused parts left off): as above
Sequence of GST-LIMK2 PDZ domain fusion protein (human LIM domain kinase 2 AA185-275; PDZ domain 1 of 1) (P08515 1-218, tags or fused parts left off): as above
Sequence of GST-MINT3 PDZ domain fusion protein (human MINT3 AA11-52; PDZ domain 1 of 1) (P08515 1-218, tags or fused parts left off): as above
T19 sequence (P08515 1-218, tags or fused parts left off): as above
T18 sequence (P08515 1-218, tags or fused parts left off): as above
T11 sequence (P08515 1-218, tags or fused parts left off): as above

Binder: Biotin-SSAKSSNKNKKNKDKEYYV [Neurexin C-terminal PL peptide AA38L, biotinylated]
- binding result [1]: binds
- binding result [2]: binds
- binding result [3]: binds
- binding result [4]: binds
- binding result [5]: binds
- binding result [6]: binds
- binding result [7]: binds
- binding result [8]: binds
- binding result [9]: binds
- binding result [10]: binds
- binding result [11]: binds
- binding result [12]: binds
- binding result [13]: no binding
- binding result [14]: no binding
- binding result [15]: no binding
- binding result [16]: no binding
- binding result [17]: no binding
- binding result [18]: no binding
- binding result [19]: no binding
- binding result [20]: no binding
- binding result [21]: no binding
- binding result [22]: no binding
- binding result [23]: no binding
- binding result [24]: no binding
- binding result [25]: binds

Binder: Biotin-KDITSDSENSNFRNEIQSLV [CD95 (Apo-1/Fas) C-terminal PL peptide AA13L, biotinylated]
- binding result [26]: no binding
- binding result [13]: no binding
- binding result [14]: no binding
- binding result [15]: no binding
- binding result [16]: no binding
- binding result [27]: no binding
- binding result [17]: no binding
- binding result [28]: no binding
- binding result [18]: no binding
- binding result [29]: no binding
- binding result [30]: no binding
- binding result [19]: no binding
- binding result [31]: no binding
- binding result [32]: no binding
- binding result [33]: no binding
- binding result [20]: no binding
- binding result [21]: no binding
- binding result [22]: no binding
- binding result [23]: no binding
- binding result [24]: no binding
- binding result [34]: no binding
- binding result [35]: no binding
- Kd [36]: 85 µM
- Kd [37]: 54 µM
